From IntAct's records for PubMed 22246185

B1: Apoptotic protease-activating factor 1 (Homo sapiens), O14727 (parent)
chain: MDAKARNCLLQHREALEKDIKTSYIMDHMISDGFLTISEEEKVRNEPTQQQRAAMLIKMILKKDNDSYVSFYNALLHEGYKDLAALLHDGIPVVSSSSGKDSVSGITSYVRTVLCEGGVPQRPVVFVTRKKLVNAIQQKLSKLKGEPGWVTIHGMAGCGKSVLAAEAVRDHSLLEGCFPGGVHWVSVGKQDKSGLLMKLQNLCTRLDQDESFSQRLPLNIEEAKDRLRILMLRKHPRSLLILDDVWDSWVLKAFDSQCQILLTTRDKSVTDSVMGPKYVVPVESSLGKEKGLEILSLFVNMKKADLPEQAHSIIKECKGSPLVVSLIGALLRDFPNRWEYYLKQLQNKQFKRIRKSSSYDYEALDEAMSISVEMLREDIKDYYTDLSILQKDVKVPTKVLCILWDMETEEVEDILQEFVNKSLLFCDRNGKSFRYYLHDLQVDFLTEKNCSQLQDLHKKIITQFQRYHQPHTLSPDQEDCMYWYNFLAYHMASAKMHKELCALMFSLDWIKAKTELVGPAHLIHEFVEYRHILDEKDCAVSENFQEFLSLNGHLLGRQPFPNIVQLGLCEPETSEVYQQAKLQAKQEVDNGMLYLEWINKKNITNLSRLVVRPHTDAVYHACFSEDGQRIASCGADKTLQVFKAETGEKLLEIKAHEDEVLCCAFSTDDRFIATCSVDKKVKIWNSMTGELVHTYDEHSEQVNCCHFTNSSHHLLLATGSSDCFLKLWDLNQKECRNTMFGHTNSVNHCRFSPDDKLLASCSADGTLKLWDATSANERKSINVKQFFLNLEDPQEDMEVIVKCCSWSADGARIMVAAKNKIFLFDIHTSGLLGEIHTGHHSTIQYCDFSPQNHLAVVALSQYCVELWNTDSRSKVADCRGHLSWVHGVMFSPDGSSFLTSSDDQTIRLWETKKVCKNSAVMLKQEVDVVFQENEVMVLAVDHIRRLQLINGRTGQIDYLTEAQVSCCCLSPHLQYIAFGDENGAIEILELVNNRIFQSRFQHKKTVWHIQFTADEKTLISSSDDAEIQVWNWQLDKCIFLRGHQETVKDFRLLKNSRLLSWSFDGTVKVWNIITGNKEKDFVCHQGTVLSCDISHDATKFSSTSADKTAKIWSFDLLLPLHELRGHNGCVRCSAFSVDSTLLATGDDNGEIRIWNVSNGELLHLCAPLSEEGAATHGGWVTDLCFSPDGKMLISAGGYIKWWNVVTGESSQTFYTNGTNLKKIHVSPDFKTYVTVDNLGILYILQTLE

Variants of: B1
Details: with 1433e_human YWHAE

Row | Variant | effect of a mutation on the interaction
1 | S268A | decreasing interaction

Variants of: B1
Details: with 1433e_human YWHAE
Remark: another data set of the same source

Row | Variant | effect of a mutation on the interaction
2 | S357A | decreasing interaction
